The values below come from publication PMC546169.

What all share (assay): X-ray crystallography
Data set [1] concerns the target T1, Sac7d M29A (Sulfolobus acidocaldarius, UniProt P13123 1-66, M29A).
T1 sequence: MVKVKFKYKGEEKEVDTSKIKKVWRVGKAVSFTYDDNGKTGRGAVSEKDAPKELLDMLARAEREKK

For data set [2], the target named is T2, Sac7d V26F/M29F (Sulfolobus acidocaldarius, UniProt P13123 1-66, V26F;M29F).
T2 sequence: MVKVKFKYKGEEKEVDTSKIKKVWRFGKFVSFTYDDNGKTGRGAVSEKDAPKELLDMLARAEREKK

Data set [3] deals with T3, Sac7d V26A/M29A (Sulfolobus acidocaldarius, UniProt P13123 1-66, V26A;M29A).
T3 sequence: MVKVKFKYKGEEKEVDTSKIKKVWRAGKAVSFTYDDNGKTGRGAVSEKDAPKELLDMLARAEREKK

The target in data set [4] is T4, Sac7d V26A (Sulfolobus acidocaldarius, UniProt P13123 1-66, V26A).
T4 sequence: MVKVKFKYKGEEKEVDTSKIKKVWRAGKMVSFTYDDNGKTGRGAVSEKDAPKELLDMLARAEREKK

The target in data set [5] is T5, Sac7d M29F (Sulfolobus acidocaldarius, UniProt P13123 1-66, M29F).
T5 sequence: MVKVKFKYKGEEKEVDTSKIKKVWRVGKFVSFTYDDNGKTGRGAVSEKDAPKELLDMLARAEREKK

Data set [6] deals with T5, Sac7d M29F. The source holds these as a separate data set.
In data set [7] the target is T3, Sac7d V26A/M29A. This is another data set of the same source.
The target of data set [8] is T3, Sac7d V26A/M29A. The source holds these as a separate data set.

Like-named read-outs stand apart in the source and are kept apart here.

B1: GCGATCGC duplex (dsDNA)
DNA 1: GCGATCGC
DNA 2: GCGATCGC
For the molecule B1, the binding result in data set [1], in data set [2], in data set [3], in data set [4] and in data set [5] was “binds” throughout.

B2: GTAATTAC duplex (dsDNA)
DNA 1: GTAATTAC
DNA 2: GTAATTAC
On to B2, for which the binding result in data set [6], in data set [1] and in data set [4] was “binds” each time.

B3: GCGATiCGC duplex (dsDNA)
DNA 1: GCGAUCGC
DNA 2: GCGAUCGC
modifications: DNA with iodo derivative at position 5 (printed Ti; presumably iodo-dU)
In the case of B3, in data set [7], the binding result is on record as “binds”.

B4: GCGAUbrCGC duplex (dsDNA)
DNA 1: GCGAUCGC
DNA 2: GCGAUCGC
modifications: DNA with bromo-dU at position 5 of each strand
In the case of B4, the binding result in data set [6] and in data set [8] was “binds” throughout.
